Experimental findings from patent publication US20200157212A1 (Pfizer, published 2020) are described below.

Assay [1] addresses T1, Human ROBO1 RSK mutant overexpressed on HEK293 cells (human, UniProt Q9Y6N7 26-1651).
T1 construct: K137R and R139K already in the entry; also called ROBO1-RSK cells
The assay is described as follows: flow cytometry, HEK293 cells. As to the method:
(§1) Using flow cytometry, improvement in the binding EC₅₀ to human ROBO2 relative to the parental 93H2 was evaluated. Starting at 6.7 nM, 11-point, 3-fold dilution series were made for each antibody and used to stain HEK293 overexpressing human ROBO2 as described above for the ROBO2 fold selectivity (Example 2). […] In addition to measuring improved binding to human ROBO2, it was important to ensure that high affinity binding to both cynomolgus monkey ROBO2 and rat ROBO2 was maintained. Using HEK293 cells overexpressing either cynomolgus monkey ROBO2 or rat ROBO2, the relative dose-dependent binding of 93H2, Abcs25 and Abcs35 was evaluated as described above. High affinity binding to both cynomolgus monkey and rat ROBO2 was maintained in Abcs25 and Abcs35 (Table 4). […] Briefly, Abcs35 was immobilized to 300 resonance units (RU) on a CM5 chip. Association of ROBO2 Ig1-Ig2-His (ROBO2) was measured over 5 minutes and dissociation was followed for a period of 10 minutes.
(§2) The binding profile of Abcs35-J compared to Abcs35 was determined for human ROBO2, orthologs from cynomolgus monkey and rat, human ROBO1 and specificity for the RSK epitope from ROBO2 but not KSR from ROBO1. Binding was assessed by flow cytometry as described in Examples 2 (homolog specificity), Example 3 (ortholog reactivity) and Example 5 (RSK vs KSR epitope specificity). […] Binding of the antibodies was detected using a secondary fluorochrome conjugated anti-human IgG F(ab′)₂ antibody and samples analyzed on a Fortessa cytometer (BD Biosciences).
On the technique in general: In flow cytometry, cells or beads pass a laser one at a time.

The target in a further assay is T2, Rat ROBO2 on cells (rat, UniProt Q7TPD3 22-1469 (mouse entry)).
T2 construct: overexpressed on HEK293 cells in flow cytometry; endogenous on rat SVZ neuronal explants in the SVZa assay
T2 chain: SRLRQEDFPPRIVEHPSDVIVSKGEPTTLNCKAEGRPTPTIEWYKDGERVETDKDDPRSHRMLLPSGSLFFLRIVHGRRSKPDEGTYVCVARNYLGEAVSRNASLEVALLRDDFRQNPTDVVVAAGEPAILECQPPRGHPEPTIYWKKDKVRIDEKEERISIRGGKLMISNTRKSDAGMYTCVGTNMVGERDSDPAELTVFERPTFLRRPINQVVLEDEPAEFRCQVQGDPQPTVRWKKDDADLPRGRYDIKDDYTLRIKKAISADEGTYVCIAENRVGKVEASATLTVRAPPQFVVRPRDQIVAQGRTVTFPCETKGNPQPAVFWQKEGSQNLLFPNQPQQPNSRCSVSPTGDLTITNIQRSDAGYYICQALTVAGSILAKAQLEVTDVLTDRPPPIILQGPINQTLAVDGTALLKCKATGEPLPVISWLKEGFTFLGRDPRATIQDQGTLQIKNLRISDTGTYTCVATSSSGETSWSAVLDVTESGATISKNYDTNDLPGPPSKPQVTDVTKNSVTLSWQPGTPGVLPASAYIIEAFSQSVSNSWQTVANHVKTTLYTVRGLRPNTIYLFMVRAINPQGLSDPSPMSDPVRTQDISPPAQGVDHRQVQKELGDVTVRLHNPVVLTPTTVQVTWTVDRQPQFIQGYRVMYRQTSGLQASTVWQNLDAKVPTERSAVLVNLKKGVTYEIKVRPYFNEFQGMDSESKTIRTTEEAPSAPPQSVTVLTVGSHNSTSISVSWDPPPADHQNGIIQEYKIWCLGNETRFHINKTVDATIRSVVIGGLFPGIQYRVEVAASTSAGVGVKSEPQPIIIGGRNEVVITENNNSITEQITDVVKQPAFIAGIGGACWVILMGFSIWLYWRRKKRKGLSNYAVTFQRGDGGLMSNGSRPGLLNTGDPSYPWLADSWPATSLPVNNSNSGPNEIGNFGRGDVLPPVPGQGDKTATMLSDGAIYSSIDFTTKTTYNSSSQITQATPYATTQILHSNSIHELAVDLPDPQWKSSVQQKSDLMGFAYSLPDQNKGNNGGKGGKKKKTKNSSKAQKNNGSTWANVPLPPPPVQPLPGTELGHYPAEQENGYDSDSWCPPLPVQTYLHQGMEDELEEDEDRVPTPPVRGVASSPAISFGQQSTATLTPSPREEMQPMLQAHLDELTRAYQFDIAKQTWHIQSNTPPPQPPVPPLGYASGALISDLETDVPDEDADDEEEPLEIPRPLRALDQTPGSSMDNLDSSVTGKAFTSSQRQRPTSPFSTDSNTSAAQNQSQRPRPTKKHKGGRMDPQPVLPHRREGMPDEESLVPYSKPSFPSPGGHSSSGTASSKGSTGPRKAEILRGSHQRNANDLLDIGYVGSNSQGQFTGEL
The experiment in a line: flow cytometry, HEK293 cells. The procedure:
as §1, §2

The target of assay [2] is T3, Human ROBO1 overexpressed on HEK293 cells (human, UniProt Q9Y6N7 26-1651).
T3 construct: also called ROBO1 cells
T3 sequence (Q9Y6N7 26-1651 limits assumed): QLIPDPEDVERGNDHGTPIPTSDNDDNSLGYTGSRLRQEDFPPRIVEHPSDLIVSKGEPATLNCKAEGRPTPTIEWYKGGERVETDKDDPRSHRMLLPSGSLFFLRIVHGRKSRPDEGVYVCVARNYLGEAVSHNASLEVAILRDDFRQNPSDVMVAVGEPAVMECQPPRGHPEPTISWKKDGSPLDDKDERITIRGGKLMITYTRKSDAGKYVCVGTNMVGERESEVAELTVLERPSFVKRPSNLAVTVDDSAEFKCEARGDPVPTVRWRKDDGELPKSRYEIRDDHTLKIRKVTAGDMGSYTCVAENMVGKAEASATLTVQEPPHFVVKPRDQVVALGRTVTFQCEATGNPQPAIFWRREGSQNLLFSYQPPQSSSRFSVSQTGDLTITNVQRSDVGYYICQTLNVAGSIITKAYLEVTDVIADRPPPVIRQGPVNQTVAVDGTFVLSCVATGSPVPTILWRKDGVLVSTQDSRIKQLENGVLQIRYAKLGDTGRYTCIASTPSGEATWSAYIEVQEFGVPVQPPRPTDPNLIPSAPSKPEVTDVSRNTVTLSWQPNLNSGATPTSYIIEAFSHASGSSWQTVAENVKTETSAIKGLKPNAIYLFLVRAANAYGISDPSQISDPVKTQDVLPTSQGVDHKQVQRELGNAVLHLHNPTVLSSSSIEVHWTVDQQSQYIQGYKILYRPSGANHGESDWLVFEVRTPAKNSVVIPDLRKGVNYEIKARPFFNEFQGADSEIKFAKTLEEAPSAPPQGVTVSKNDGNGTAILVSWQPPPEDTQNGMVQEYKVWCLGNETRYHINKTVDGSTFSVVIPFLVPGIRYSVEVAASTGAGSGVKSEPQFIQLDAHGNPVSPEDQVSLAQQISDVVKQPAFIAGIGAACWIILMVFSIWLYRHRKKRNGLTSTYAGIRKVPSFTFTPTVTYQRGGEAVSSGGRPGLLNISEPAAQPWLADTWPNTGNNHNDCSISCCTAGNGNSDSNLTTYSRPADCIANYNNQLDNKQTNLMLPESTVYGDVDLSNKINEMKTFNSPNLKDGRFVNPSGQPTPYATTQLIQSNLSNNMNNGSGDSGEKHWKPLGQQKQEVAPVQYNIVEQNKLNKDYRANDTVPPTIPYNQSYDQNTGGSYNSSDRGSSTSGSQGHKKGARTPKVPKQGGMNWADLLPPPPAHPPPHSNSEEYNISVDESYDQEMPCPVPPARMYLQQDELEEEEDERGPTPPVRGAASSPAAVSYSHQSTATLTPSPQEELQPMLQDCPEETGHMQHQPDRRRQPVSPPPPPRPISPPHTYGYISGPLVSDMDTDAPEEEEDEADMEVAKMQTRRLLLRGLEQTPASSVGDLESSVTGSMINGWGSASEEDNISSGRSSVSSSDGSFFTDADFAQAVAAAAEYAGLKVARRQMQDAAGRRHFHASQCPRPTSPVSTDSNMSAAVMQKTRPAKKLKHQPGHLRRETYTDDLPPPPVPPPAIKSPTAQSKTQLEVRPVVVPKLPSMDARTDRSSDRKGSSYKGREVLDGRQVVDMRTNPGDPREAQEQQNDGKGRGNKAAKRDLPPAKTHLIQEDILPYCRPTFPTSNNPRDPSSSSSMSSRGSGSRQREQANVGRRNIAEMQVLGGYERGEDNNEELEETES
The assay is described as follows: flow cytometry on HEK293 cells overexpressing human ROBO1. The procedure: as §2, with “Biosciences). […] FIGS. 16A-16F depicts binding profiles of Abcs35 (black circles) or Abcs35-J (grey squares) to human ROBO2 (FIG. 16A), cynomolgus monkey ROBO2 (FIG. 16B), rat ROBO2 (FIG. 16C), human ROBO1 (FIG. 16D), ROBO1 containing the ROBO2 RSK epitope (FIG. 16E) or ROBO2 containing the ROBO1 KSR epitope (FIG. 16 F).” for “Biosciences).”

T1 sequence (Q9Y6N7 other isoform, or with tags, fused parts or gaps mutant limits assumed): as the sequence (Q9Y6N7 26-1651 limits assumed) above, with K112R, R114K counted along it

B1: Abcs35 (antibody, human IgG1, kappa)
heavy: EVQLVQSGAEVKKPGASVKVSCKASGYTFTGYYMHWVRQAPGQGLEWMGWINPKNGDTEFPQKFQGRVTMTRDTSITTAYMDLSRLRSDDTAVYYCARESGDDAFDIWGQGTMVTVSSASTKGPSVFPLAPSSKSTSGGTAALGCLVKDYFPEPVTVSWNSGALTSGVHTFPAVLQSSGLYSLSSVVTVPSSSLGTQTYICNVNHKPSNTKVDKKVEPKSCDKTHTCPPCPAPEAAGAPSVFLFPPKPKDTLMISRTPEVTCVVVDVSHEDPEVKFNWYVDGVEVHNAKTKPREEQYNSTYRVVSVLTVLHQDWLNGKEYKCKVSNKALPAPIEKTISKAKGQPREPQVYTLPPSREEMTKNQVSLTCLVKGFYPSDIAVEWESNGQPENNYKTTPPVLDSDGSFFLYSKLTVDKSRWQQGNVFSCSVMHEALHNHYTQKSLSLSPGK
light: DIVMTQSPSSLSASVGDRVTITCRASQSISSYLNWYQQKPGKAPKLLIYAASSLQSGVPSRFSGSGSGTDFTLTISSLQPEDFATYYCQQSVGLFFGGGTKVEIKRTVAAPSVFIFPPSDEQLKSGTASVVCLLNNFYPREAKVQWKVDNALQSGNSQESVTEQDSKDSTYSLSSTLTLSKADYEKHKVYACEVTHQGLSSPVTKSFNRGEC
notes: fully human IgG1; VH of Ab96 with VL of Ab123
For B1, the results for the 50% effective concentration (EC50) (in assay [1]; with Rat ROBO2 on cells) were 77 pM and 26 pM, respectively. Further, the binding result in assay [2] is on record as “no binding (tested: last point just below 10^1 nM)”.

B2: Abcs35-J (antibody, human IgG1, kappa)
heavy: EVQLVQSGAEVKKPGASVKVSCKASGYTFTGYYMHWVRQAPGQGLEWMGWINPKNGDTEFPQKFQGRVTMTRDTSITTAYMELSRLRSDDTAVYYCARESGDDAFDIWGQGTMVTVSSASTKGPSVFPLAPSSKSTSGGTAALGCLVKDYFPEPVTVSWNSGALTSGVHTFPAVLQSSGLYSLSSVVTVPSSSLGTQTYICNVNHKPSNTKVDKKVEPKSCDKTHTCPPCPAPEAAGAPSVFLFPPKPKDTLMISRTPEVTCVVVDVSHEDPEVKFNWYVDGVEVHNAKTKPREEQYNSTYRVVSVLTVLHQDWLNGKEYKCKVSNKALPAPIEKTISKAKGQPREPQVYTLPPSREEMTKNQVSLTCLVKGFYPSDIAVEWESNGQPENNYKTTPPVLDSDGSFFLYSKLTVDKSRWQQGNVFSCSVMHEALHNHYTQKSLSLSPGK
light: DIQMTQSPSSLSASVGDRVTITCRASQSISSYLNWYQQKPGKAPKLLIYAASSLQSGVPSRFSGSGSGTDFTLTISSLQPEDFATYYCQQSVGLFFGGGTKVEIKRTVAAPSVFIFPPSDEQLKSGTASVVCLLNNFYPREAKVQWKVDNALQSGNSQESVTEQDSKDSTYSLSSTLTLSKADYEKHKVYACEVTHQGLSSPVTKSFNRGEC
notes: germlined variant of Abcs35; also called ABCS-J
On to B2, for which the values for the EC50 (in assay [1]; with Rat ROBO2 on cells) were 79 pM and 26 pM, respectively. For the same molecule, the binding result in assay [2] is reported as “no binding (tested: last point just below 10^1 nM)”.

The EC50 is the concentration at which the effect is half-maximal. Read a high EC50 as a less potent agent.
